From patent US20110237779A1 (Genentech, published 2011)

Target: T1, human tissue factor (human, UniProt P13726 33-251, limits assumed)
T1 construct: construct not described; also called TF
Experiment: phage ELISA, solution competition: Fab-phage incubated with serially diluted TF, unbound phage captured on TF-coated wells; IC50 used as affinity estimate

IC50 [nM]	Binder
21	D3 library clone, CDR-L1 KGQRVLNSWLS (Fab, V domains shown, Changes against the D3 direct graft (Kabat): VL A25G, S26Q, D28V, I29L, K30N, Y32W; copies: 1 + 1) VH: EVQLVESGGGLVQPGGSLRLSCAASGFNIKDYYMHWVRQAPGKGLEWVGWIDPENGNTIYDPKFQDRFTISADTSKNTAYLQMNSLRAEDTAVYYCARDTAAYFDYWGQGTLVTVSS VL: DIQMTQSPSSLSASVGDRVTITCKGQRVLNSWLSWYQQKPGKAPKLLIYYATSLADGVPSRFSGSGSGTDFTLTISSLQPEDFATYYCLQHGESPFTFGQGTKVEIK
8	D3 library clone, CDR-L3 LQDGESPFT, I58F, N82aI, D95N (Fab, V domains shown, Changes against the D3 direct graft (Kabat): VL H91D; VH I58F, N82aI, D95N; copies: 1 + 1) VH: EVQLVESGGGLVQPGGSLRLSCAASGFNIKDYYMHWVRQAPGKGLEWVGWIDPENGNTFYDPKFQDRFTISADTSKNTAYLQMISLRAEDTAVYYCARNTAAYFDYWGQGTLVTVSS VL: DIQMTQSPSSLSASVGDRVTITCKASRDIKSYLSWYQQKPGKAPKLLIYYATSLADGVPSRFSGSGSGTDFTLTISSLQPEDFATYYCLQDGESPFTFGQGTKVEIK
12	D3 library clone, CDR-L2 YEGSGKR (Fab, V domains shown, Changes against the D3 direct graft (Kabat): VL A51E, T52G, L54G, A55K, D56R; Siblings 8; copies: 1 + 1) VH: EVQLVESGGGLVQPGGSLRLSCAASGFNIKDYYMHWVRQAPGKGLEWVGWIDPENGNTIYDPKFQDRFTISADTSKNTAYLQMNSLRAEDTAVYYCARDTAAYFDYWGQGTLVTVSS VL: DIQMTQSPSSLSASVGDRVTITCKASRDIKSYLSWYQQKPGKAPKLLIYYEGSGKRGVPSRFSGSGSGTDFTLTISSLQPEDFATYYCLQHGESPFTFGQGTKVEIK
16	D3 library clone, CDR-L1 NASLVINRWLS (Fab, V domains shown, Changes against the D3 direct graft (Kabat): VL K24N, R27L, D28V, K30N, S31R, Y32W; copies: 1 + 1) VH: EVQLVESGGGLVQPGGSLRLSCAASGFNIKDYYMHWVRQAPGKGLEWVGWIDPENGNTIYDPKFQDRFTISADTSKNTAYLQMNSLRAEDTAVYYCARDTAAYFDYWGQGTLVTVSS VL: DIQMTQSPSSLSASVGDRVTITCNASLVINRWLSWYQQKPGKAPKLLIYYATSLADGVPSRFSGSGSGTDFTLTISSLQPEDFATYYCLQHGESPFTFGQGTKVEIK
16	D3 library clone, CDR-L2 YATGETD (Fab, V domains shown, Changes against the D3 direct graft (Kabat): VL S53G, L54E, A55T; Siblings 2; copies: 1 + 1) VH: EVQLVESGGGLVQPGGSLRLSCAASGFNIKDYYMHWVRQAPGKGLEWVGWIDPENGNTIYDPKFQDRFTISADTSKNTAYLQMNSLRAEDTAVYYCARDTAAYFDYWGQGTLVTVSS VL: DIQMTQSPSSLSASVGDRVTITCKASRDIKSYLSWYQQKPGKAPKLLIYYATGETDGVPSRFSGSGSGTDFTLTISSLQPEDFATYYCLQHGESPFTFGQGTKVEIK
21	D3 library clone, CDR-L2 YTTGPVD (Fab, V domains shown, Changes against the D3 direct graft (Kabat): VL A51T, S53G, L54P, A55V; copies: 1 + 1) VH: EVQLVESGGGLVQPGGSLRLSCAASGFNIKDYYMHWVRQAPGKGLEWVGWIDPENGNTIYDPKFQDRFTISADTSKNTAYLQMNSLRAEDTAVYYCARDTAAYFDYWGQGTLVTVSS VL: DIQMTQSPSSLSASVGDRVTITCKASRDIKSYLSWYQQKPGKAPKLLIYYTTGPVDGVPSRFSGSGSGTDFTLTISSLQPEDFATYYCLQHGESPFTFGQGTKVEIK
16	D3 library clone, CDR-L2 YTAGPSD (Fab, V domains shown, Changes against the D3 direct graft (Kabat): VL A51T, T52A, S53G, L54P, A55S; copies: 1 + 1) VH: EVQLVESGGGLVQPGGSLRLSCAASGFNIKDYYMHWVRQAPGKGLEWVGWIDPENGNTIYDPKFQDRFTISADTSKNTAYLQMNSLRAEDTAVYYCARDTAAYFDYWGQGTLVTVSS VL: DIQMTQSPSSLSASVGDRVTITCKASRDIKSYLSWYQQKPGKAPKLLIYYTAGPSDGVPSRFSGSGSGTDFTLTISSLQPEDFATYYCLQHGESPFTFGQGTKVEIK
17	D3 library clone, CDR-L2 DAIGLAD (Fab, V domains shown, Changes against the D3 direct graft (Kabat): VL Y50D, T52I, S53G; copies: 1 + 1) VH: EVQLVESGGGLVQPGGSLRLSCAASGFNIKDYYMHWVRQAPGKGLEWVGWIDPENGNTIYDPKFQDRFTISADTSKNTAYLQMNSLRAEDTAVYYCARDTAAYFDYWGQGTLVTVSS VL: DIQMTQSPSSLSASVGDRVTITCKASRDIKSYLSWYQQKPGKAPKLLIYDAIGLADGVPSRFSGSGSGTDFTLTISSLQPEDFATYYCLQHGESPFTFGQGTKVEIK
4	D3 library clone, CDR-L2 YAPSLAD (Fab, V domains shown, Change against the D3 direct graft (Kabat): VL T52P; copies: 1 + 1) VH: EVQLVESGGGLVQPGGSLRLSCAASGFNIKDYYMHWVRQAPGKGLEWVGWIDPENGNTIYDPKFQDRFTISADTSKNTAYLQMNSLRAEDTAVYYCARDTAAYFDYWGQGTLVTVSS VL: DIQMTQSPSSLSASVGDRVTITCKASRDIKSYLSWYQQKPGKAPKLLIYYAPSLADGVPSRFSGSGSGTDFTLTISSLQPEDFATYYCLQHGESPFTFGQGTKVEIK
11	D3 library clone, CDR-L2 YETGEPE (Fab, V domains shown, Changes against the D3 direct graft (Kabat): VL A51E, S53G, L54E, A55P, D56E; copies: 1 + 1) VH: EVQLVESGGGLVQPGGSLRLSCAASGFNIKDYYMHWVRQAPGKGLEWVGWIDPENGNTIYDPKFQDRFTISADTSKNTAYLQMNSLRAEDTAVYYCARDTAAYFDYWGQGTLVTVSS VL: DIQMTQSPSSLSASVGDRVTITCKASRDIKSYLSWYQQKPGKAPKLLIYYETGEPEGVPSRFSGSGSGTDFTLTISSLQPEDFATYYCLQHGESPFTFGQGTKVEIK
13	D3 library clone, CDR-L3 LQDGESPFT (Fab, V domains shown, Change against the D3 direct graft (Kabat): VL H91D; Siblings 5; copies: 1 + 1) VH: EVQLVESGGGLVQPGGSLRLSCAASGFNIKDYYMHWVRQAPGKGLEWVGWIDPENGNTIYDPKFQDRFTISADTSKNTAYLQMNSLRAEDTAVYYCARDTAAYFDYWGQGTLVTVSS VL: DIQMTQSPSSLSASVGDRVTITCKASRDIKSYLSWYQQKPGKAPKLLIYYATSLADGVPSRFSGSGSGTDFTLTISSLQPEDFATYYCLQDGESPFTFGQGTKVEIK
9	D3 library clone, CDR-L1 KGSGYIKHFVS (Fab, V domains shown, Changes against the D3 direct graft (Kabat): VL A25G, R27G, D28Y, S31H, Y32F, L33V; Siblings 2; copies: 1 + 1) VH: EVQLVESGGGLVQPGGSLRLSCAASGFNIKDYYMHWVRQAPGKGLEWVGWIDPENGNTIYDPKFQDRFTISADTSKNTAYLQMNSLRAEDTAVYYCARDTAAYFDYWGQGTLVTVSS VL: DIQMTQSPSSLSASVGDRVTITCKGSGYIKHFVSWYQQKPGKAPKLLIYYATSLADGVPSRFSGSGSGTDFTLTISSLQPEDFATYYCLQHGESPFTFGQGTKVEIK
19	D3 library clone, CDR-L1 KGSRDTTSFVS (Fab, V domains shown, Changes against the D3 direct graft (Kabat): VL A25G, I29T, K30T, Y32F, L33V; copies: 1 + 1) VH: EVQLVESGGGLVQPGGSLRLSCAASGFNIKDYYMHWVRQAPGKGLEWVGWIDPENGNTIYDPKFQDRFTISADTSKNTAYLQMNSLRAEDTAVYYCARDTAAYFDYWGQGTLVTVSS VL: DIQMTQSPSSLSASVGDRVTITCKGSRDTTSFVSWYQQKPGKAPKLLIYYATSLADGVPSRFSGSGSGTDFTLTISSLQPEDFATYYCLQHGESPFTFGQGTKVEIK
8	D3 library clone, CDR-L2 YAPGLAD (Fab, V domains shown, Changes against the D3 direct graft (Kabat): VL T52P, S53G; Siblings 2; copies: 1 + 1) VH: EVQLVESGGGLVQPGGSLRLSCAASGFNIKDYYMHWVRQAPGKGLEWVGWIDPENGNTIYDPKFQDRFTISADTSKNTAYLQMNSLRAEDTAVYYCARDTAAYFDYWGQGTLVTVSS VL: DIQMTQSPSSLSASVGDRVTITCKASRDIKSYLSWYQQKPGKAPKLLIYYAPGLADGVPSRFSGSGSGTDFTLTISSLQPEDFATYYCLQHGESPFTFGQGTKVEIK
10	D3 library clone, CDR-L2 RGTSLFE, VL K24E, D28V, Y32F (Fab, V domains shown, Changes against the D3 direct graft (Kabat): VL K24E, D28V, Y32F, Y50R, A51G, A55F, D56E; copies: 1 + 1) VH: EVQLVESGGGLVQPGGSLRLSCAASGFNIKDYYMHWVRQAPGKGLEWVGWIDPENGNTIYDPKFQDRFTISADTSKNTAYLQMNSLRAEDTAVYYCARDTAAYFDYWGQGTLVTVSS VL: DIQMTQSPSSLSASVGDRVTITCEASRVIKSFLSWYQQKPGKAPKLLIYRGTSLFEGVPSRFSGSGSGTDFTLTISSLQPEDFATYYCLQHGESPFTFGQGTKVEIK
10	D3 library clone, CDR-L2 YAPGPAD (Fab, V domains shown, Changes against the D3 direct graft (Kabat): VL T52P, S53G, L54P; copies: 1 + 1) VH: EVQLVESGGGLVQPGGSLRLSCAASGFNIKDYYMHWVRQAPGKGLEWVGWIDPENGNTIYDPKFQDRFTISADTSKNTAYLQMNSLRAEDTAVYYCARDTAAYFDYWGQGTLVTVSS VL: DIQMTQSPSSLSASVGDRVTITCKASRDIKSYLSWYQQKPGKAPKLLIYYAPGPADGVPSRFSGSGSGTDFTLTISSLQPEDFATYYCLQHGESPFTFGQGTKVEIK
9	D3 library clone, CDR-L2 YETGPTD (Fab, V domains shown, Changes against the D3 direct graft (Kabat): VL A51E, S53G, L54P, A55T; copies: 1 + 1) VH: EVQLVESGGGLVQPGGSLRLSCAASGFNIKDYYMHWVRQAPGKGLEWVGWIDPENGNTIYDPKFQDRFTISADTSKNTAYLQMNSLRAEDTAVYYCARDTAAYFDYWGQGTLVTVSS VL: DIQMTQSPSSLSASVGDRVTITCKASRDIKSYLSWYQQKPGKAPKLLIYYETGPTDGVPSRFSGSGSGTDFTLTISSLQPEDFATYYCLQHGESPFTFGQGTKVEIK
11	D3 library clone, CDR-L2 YAPRRAR (Fab, V domains shown, Changes against the D3 direct graft (Kabat): VL T52P, S53R, L54R, D56R; Siblings 2; copies: 1 + 1) VH: EVQLVESGGGLVQPGGSLRLSCAASGFNIKDYYMHWVRQAPGKGLEWVGWIDPENGNTIYDPKFQDRFTISADTSKNTAYLQMNSLRAEDTAVYYCARDTAAYFDYWGQGTLVTVSS VL: DIQMTQSPSSLSASVGDRVTITCKASRDIKSYLSWYQQKPGKAPKLLIYYAPRRARGVPSRFSGSGSGTDFTLTISSLQPEDFATYYCLQHGESPFTFGQGTKVEIK
7	D3 library clone, CDR-L2 YEPGLAD (Fab, V domains shown, Changes against the D3 direct graft (Kabat): VL A51E, T52P, S53G; copies: 1 + 1) VH: EVQLVESGGGLVQPGGSLRLSCAASGFNIKDYYMHWVRQAPGKGLEWVGWIDPENGNTIYDPKFQDRFTISADTSKNTAYLQMNSLRAEDTAVYYCARDTAAYFDYWGQGTLVTVSS VL: DIQMTQSPSSLSASVGDRVTITCKASRDIKSYLSWYQQKPGKAPKLLIYYEPGLADGVPSRFSGSGSGTDFTLTISSLQPEDFATYYCLQHGESPFTFGQGTKVEIK
10	D3 library clone, CDR-L2 YETGWAE (Fab, V domains shown, Changes against the D3 direct graft (Kabat): VL A51E, S53G, L54W, D56E; copies: 1 + 1) VH: EVQLVESGGGLVQPGGSLRLSCAASGFNIKDYYMHWVRQAPGKGLEWVGWIDPENGNTIYDPKFQDRFTISADTSKNTAYLQMNSLRAEDTAVYYCARDTAAYFDYWGQGTLVTVSS VL: DIQMTQSPSSLSASVGDRVTITCKASRDIKSYLSWYQQKPGKAPKLLIYYETGWAEGVPSRFSGSGSGTDFTLTISSLQPEDFATYYCLQHGESPFTFGQGTKVEIK
10	D3 library clone, CDR-L2 YVPWTAD (Fab, V domains shown, Changes against the D3 direct graft (Kabat): VL A51V, T52P, S53W, L54T; copies: 1 + 1) VH: EVQLVESGGGLVQPGGSLRLSCAASGFNIKDYYMHWVRQAPGKGLEWVGWIDPENGNTIYDPKFQDRFTISADTSKNTAYLQMNSLRAEDTAVYYCARDTAAYFDYWGQGTLVTVSS VL: DIQMTQSPSSLSASVGDRVTITCKASRDIKSYLSWYQQKPGKAPKLLIYYVPWTADGVPSRFSGSGSGTDFTLTISSLQPEDFATYYCLQHGESPFTFGQGTKVEIK
8	D3 library clone, CDR-L2 YESGPAD (Fab, V domains shown, Changes against the D3 direct graft (Kabat): VL A51E, T52S, S53G, L54P; Siblings 2; copies: 1 + 1) VH: EVQLVESGGGLVQPGGSLRLSCAASGFNIKDYYMHWVRQAPGKGLEWVGWIDPENGNTIYDPKFQDRFTISADTSKNTAYLQMNSLRAEDTAVYYCARDTAAYFDYWGQGTLVTVSS VL: DIQMTQSPSSLSASVGDRVTITCKASRDIKSYLSWYQQKPGKAPKLLIYYESGPADGVPSRFSGSGSGTDFTLTISSLQPEDFATYYCLQHGESPFTFGQGTKVEIK
